Reference: the supplement of paper PMC9112550, “Optimization of the antimicrobial peptide Bac7 by deep mutational scanning” (BMC Biology, 2022)

System: Escherichia coli TOP10
Assay: shrunken log2 fold change of peptide-encoding DNA abundance (4.5 h post-induction vs induction); higher = less antimicrobial activity (less host growth inhibition)
Settings: time post-induction: 4.5 h; library: site-saturation at positions 5, 18, 19, 20
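Note: peptides expressed intracellularly from a pBAD plasmid library in pooled LB shake-flask culture, induced with 0.3% L-arabinose, DNA abundance read by NGS, three biological replicates, DESeq2 with apeglm shrinkage.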

Sequence	shrunken log2 fold change
RRIRGRPPRLPRPRPRPQNIPRP	-0.603
RRIRIRPPRLPRPRPRPQMHPRP	-0.494
RRIRYRPPRLPRPRPRPHAYPRP	-0.0226
RRIRVRPPRLPRPRPRPIVFPRP	0.0602
RRIRVRPPRLPRPRPRPSHWPRP	0.182
RRIRLRPPRLPRPRPRPSYGPRP	-0.585
RRIRDRPPRLPRPRPRPACVPRP	0.337
RRIRGRPPRLPRPRPRPIVVPRP	0.962
RRIRSRPPRLPRPRPRPSGWPRP	0.434
RRIRPRPPRLPRPRPRPDVNPRP	-0.233
RRIRQRPPRLPRPRPRPDYKPRP	-0.0788
RRIRKRPPRLPRPRPRPELMPRP	1.24
RRIRERPPRLPRPRPRPVEWPRP	-0.00804
RRIRKRPPRLPRPRPRPEATPRP	3.17
RRIRFRPPRLPRPRPRPPHNPRP	0.0036
RRIRRRPPRLPRPRPRPLREPRP	1.14
RRIRERPPRLPRPRPRPVYWPRP	0.0789
RRIRFRPPRLPRPRPRPIDWPRP	-0.0094
RRIRPRPPRLPRPRPRPALNPRP	0.0983
RRIRGRPPRLPRPRPRPEISPRP	1.5
RRIRYRPPRLPRPRPRPRSKPRP	-0.439
RRIRNRPPRLPRPRPRPVNSPRP	0.0303
RRIRIRPPRLPRPRPRPCLHPRP	-0.174
RRIRPRPPRLPRPRPRPLMSPRP	-0.443
RRIRVRPPRLPRPRPRPHEKPRP	0.0571

Sequence	shrunken log2 fold change
RRIRNRPPRLPRPRPRPNWKPRP	-0.0062
RRIRQRPPRLPRPRPRPPQDPRP	1.1
RRIRGRPPRLPRPRPRPDCHPRP	0.217
RRIRNRPPRLPRPRPRPPKMPRP	-0.168
RRIRTRPPRLPRPRPRPSRRPRP	0.128
RRIRYRPPRLPRPRPRPSHEPRP	-0.0704
RRIRTRPPRLPRPRPRPFKSPRP	-0.0217
RRIRSRPPRLPRPRPRPQCSPRP	-0.0935
RRIRLRPPRLPRPRPRPYSHPRP	-0.444
RRIRMRPPRLPRPRPRPFSLPRP	-0.282
RRIRARPPRLPRPRPRPTRYPRP	0.356
RRIRIRPPRLPRPRPRPEPSPRP	3.27
RRIRQRPPRLPRPRPRPIMSPRP	0.0933
RRIRVRPPRLPRPRPRPRPYPRP	0.179
RRIRIRPPRLPRPRPRPRAGPRP	1.6
RRIRVRPPRLPRPRPRPPWIPRP	0.218
RRIRARPPRLPRPRPRPRQTPRP	0.535
RRIRNRPPRLPRPRPRPAGRPRP	0.486
RRIRLRPPRLPRPRPRPFCDPRP	-0.366
RRIRNRPPRLPRPRPRPQQTPRP	-0.0918
RRIRRRPPRLPRPRPRPMLYPRP	-0.0417
RRIRMRPPRLPRPRPRPTPEPRP	0.713
RRIRWRPPRLPRPRPRPAFDPRP	0.397
RRIRERPPRLPRPRPRPQDIPRP	-0.135
RRIRMRPPRLPRPRPRPGMNPRP	-0.00589

Sequence	shrunken log2 fold change
RRIRARPPRLPRPRPRPDWGPRP	0.272
RRIRIRPPRLPRPRPRPWKKPRP	0.00748
RRIRDRPPRLPRPRPRPCKSPRP	-0.321
RRIRARPPRLPRPRPRPMQSPRP	0.43
RRIRWRPPRLPRPRPRPWGHPRP	-0.404
RRIRNRPPRLPRPRPRPSKWPRP	-0.213
RRIRARPPRLPRPRPRPQQSPRP	0.54
RRIRIRPPRLPRPRPRPCQTPRP	-0.02
RRIRHRPPRLPRPRPRPLMHPRP	-0.414
RRIRGRPPRLPRPRPRPDSGPRP	0.128
RRIRERPPRLPRPRPRPKDQPRP	0.188
RRIRSRPPRLPRPRPRPAYVPRP	-0.137
RRIRVRPPRLPRPRPRPIHCPRP	0.0605
RRIRKRPPRLPRPRPRPCDSPRP	-0.212
RRIRCRPPRLPRPRPRPCFDPRP	-0.526
RRIRARPPRLPRPRPRPYCWPRP	-0.258
RRIRCRPPRLPRPRPRPMSKPRP	-0.5
RRIRMRPPRLPRPRPRPLMGPRP	-0.0985
RRIRTRPPRLPRPRPRPNGHPRP	0.0943
RRIRPRPPRLPRPRPRPYGFPRP	-0.426
RRIRGRPPRLPRPRPRPNEEPRP	0.621
RRIRERPPRLPRPRPRPFRHPRP	0.0628
RRIRHRPPRLPRPRPRPAFLPRP	0.305
RRIRQRPPRLPRPRPRPHSHPRP	0.0496
RRIRWRPPRLPRPRPRPGGQPRP	-0.0831

Sequence	shrunken log2 fold change
RRIRERPPRLPRPRPRPYIMPRP	-0.542
RRIRRRPPRLPRPRPRPTQWPRP	0.183
RRIRIRPPRLPRPRPRPPCFPRP	-0.11
RRIRGRPPRLPRPRPRPCYCPRP	-0.164
RRIRYRPPRLPRPRPRPQYMPRP	-0.192
RRIRERPPRLPRPRPRPYKMPRP	-0.0803
RRIRYRPPRLPRPRPRPQKTPRP	-0.0404
RRIRSRPPRLPRPRPRPNLAPRP	-0.14
RRIRPRPPRLPRPRPRPYIPPRP	-0.719
RRIRSRPPRLPRPRPRPSCKPRP	-0.797
RRIRIRPPRLPRPRPRPHCPPRP	-0.102
RRIRLRPPRLPRPRPRPQEPPRP	-0.0198
RRIRIRPPRLPRPRPRPCRWPRP	0.0527
RRIRLRPPRLPRPRPRPPGQPRP	0.625
RRIRIRPPRLPRPRPRPRHTPRP	-0.34
RRIRWRPPRLPRPRPRPGQAPRP	1.06
RRIRARPPRLPRPRPRPNGRPRP	-0.11
RRIRFRPPRLPRPRPRPECRPRP	-0.0408
RRIRYRPPRLPRPRPRPDGFPRP	-0.418
RRIRRRPPRLPRPRPRPPMLPRP	0.317
RRIRLRPPRLPRPRPRPIHSPRP	-1.61
RRIRMRPPRLPRPRPRPHFSPRP	-0.194
RRIRQRPPRLPRPRPRPPQQPRP	0.497
RRIRARPPRLPRPRPRPYQLPRP	-0.215
RRIRPRPPRLPRPRPRPTYKPRP	-0.455

Sequence	shrunken log2 fold change
RRIRHRPPRLPRPRPRPLLLPRP	-0.208
RRIRLRPPRLPRPRPRPMKCPRP	0.131
RRIRIRPPRLPRPRPRPCVQPRP	1.47
RRIRWRPPRLPRPRPRPIRWPRP	0.0855
RRIRNRPPRLPRPRPRPTLKPRP	0.0241
RRIRWRPPRLPRPRPRPQWPPRP	0.158
RRIRTRPPRLPRPRPRPVKRPRP	0.0411
RRIRCRPPRLPRPRPRPALPPRP	0.143
RRIRMRPPRLPRPRPRPAEAPRP	0.917
RRIRPRPPRLPRPRPRPFSIPRP	-0.164
RRIRDRPPRLPRPRPRPNYGPRP	-0.0075
RRIRPRPPRLPRPRPRPMDMPRP	-0.784
RRIRWRPPRLPRPRPRPQLTPRP	0.325
RRIRTRPPRLPRPRPRPIGKPRP	0.0128
RRIRYRPPRLPRPRPRPFQLPRP	-0.0518
RRIRWRPPRLPRPRPRPGDVPRP	0.0583
RRIRLRPPRLPRPRPRPHIRPRP	-0.108
RRIRWRPPRLPRPRPRPYWWPRP	-0.0939
RRIRHRPPRLPRPRPRPSDFPRP	0.00333
RRIRSRPPRLPRPRPRPHWIPRP	-0.279
RRIRSRPPRLPRPRPRPIHTPRP	-0.112
RRIRQRPPRLPRPRPRPYSHPRP	-0.0388
RRIRNRPPRLPRPRPRPASMPRP	-0.064
RRIRGRPPRLPRPRPRPRTQPRP	0.826
RRIRMRPPRLPRPRPRPLKSPRP	0.11

Sequence	shrunken log2 fold change
RRIRVRPPRLPRPRPRPHRKPRP	0.164
RRIRHRPPRLPRPRPRPNLMPRP	0.0972
RRIRSRPPRLPRPRPRPHELPRP	-0.101
RRIRGRPPRLPRPRPRPVSQPRP	0.795
RRIRVRPPRLPRPRPRPMEMPRP	-0.0249
RRIRGRPPRLPRPRPRPIHFPRP	-0.252
RRIRARPPRLPRPRPRPYWVPRP	-0.57
RRIRPRPPRLPRPRPRPQGRPRP	-0.0433
RRIRSRPPRLPRPRPRPQCCPRP	-0.312
RRIRVRPPRLPRPRPRPNCDPRP	-0.356
RRIRQRPPRLPRPRPRPTPDPRP	0.711
RRIRERPPRLPRPRPRPFGDPRP	-0.0107
RRIRMRPPRLPRPRPRPPESPRP	2.5
RRIRGRPPRLPRPRPRPDEVPRP	0.885
RRIRLRPPRLPRPRPRPGAVPRP	0.375
RRIRNRPPRLPRPRPRPIDIPRP	-0.947
RRIRKRPPRLPRPRPRPVCSPRP	0.0361
RRIRCRPPRLPRPRPRPEILPRP	-0.0141
RRIRGRPPRLPRPRPRPLQIPRP	0.803
RRIRWRPPRLPRPRPRPLHGPRP	0.131
RRIRDRPPRLPRPRPRPTYLPRP	0.00451
RRIRWRPPRLPRPRPRPMDEPRP	0.0255
RRIRKRPPRLPRPRPRPSWTPRP	-0.0691
RRIRKRPPRLPRPRPRPDTNPRP	0.335
RRIRRRPPRLPRPRPRPAQLPRP	0.42
